Article PMC9490035, “Unexpected structures formed by the kinase RET C634R mutant extracellular domain suggest potential oncogenic mechanisms in MEN2A” (The Journal of Biological Chemistry, 2022)
Blank lines part the entries; values can stand above or below the molecule they belong to.

How the values were obtained:
[1] = target: GDF15/GFRAL complex (Homo sapiens) (UniProt Q99988); conditions: cited from earlier work
[2] = target: RET^C634R extracellular domain dimer (human RET residues 1-635 with C634R, C86R and C216S) (human) (UniProt P07949); experiment: SEC-MALS; Superdex 200 10/300 GL, 0.25 ml/min, RT, 20 mM Hepes pH 7.5, 100 mM NaCl, 1 mM CaCl2
[3] = target: Fc-GDF15/GFRAL complex (formed beforehand) (human) (UniProt Q99988); experiment: BLI; Fc-GDF15 (15 uM) immobilised on anti-hIgG Fc capture biosensors, saturated with GFRAL (3 uM), then RET^C634R 0.3-42 uM; saturation signals fitted to a sigmoidal model
[4] = target: T1, WT RET extracellular domain (human RET residues 1-635) (human, UniProt P07949 29-635, glycosylated (near-native glycans)); experiment: native gel or EMSA; Blue Native PAGE; Fc-GDF15 dimer 2 uM + GFRAL 4 uM for 15 min (with or without thrombin), then RET^WT monomer 4 uM or RET^C634R dimer 2 uM; RET + copurified GDNF/GFRα1 at 1:1; 30 min at RT; run at 100 V, 4 °C; also after 5 min heating at 50-85 °C for melting curves; conditions: both partners purified
T1 construct: signal peptide in the construct; human RET extracellular domain, residues 1-635; TEV site before the His8-Flag tags; also called RET^WT; RET^WT ECD; source: HEK293T, transient expression, secreted; purified (Ni-NTA, anti-Flag)
T1 sequence (P07949 29-635): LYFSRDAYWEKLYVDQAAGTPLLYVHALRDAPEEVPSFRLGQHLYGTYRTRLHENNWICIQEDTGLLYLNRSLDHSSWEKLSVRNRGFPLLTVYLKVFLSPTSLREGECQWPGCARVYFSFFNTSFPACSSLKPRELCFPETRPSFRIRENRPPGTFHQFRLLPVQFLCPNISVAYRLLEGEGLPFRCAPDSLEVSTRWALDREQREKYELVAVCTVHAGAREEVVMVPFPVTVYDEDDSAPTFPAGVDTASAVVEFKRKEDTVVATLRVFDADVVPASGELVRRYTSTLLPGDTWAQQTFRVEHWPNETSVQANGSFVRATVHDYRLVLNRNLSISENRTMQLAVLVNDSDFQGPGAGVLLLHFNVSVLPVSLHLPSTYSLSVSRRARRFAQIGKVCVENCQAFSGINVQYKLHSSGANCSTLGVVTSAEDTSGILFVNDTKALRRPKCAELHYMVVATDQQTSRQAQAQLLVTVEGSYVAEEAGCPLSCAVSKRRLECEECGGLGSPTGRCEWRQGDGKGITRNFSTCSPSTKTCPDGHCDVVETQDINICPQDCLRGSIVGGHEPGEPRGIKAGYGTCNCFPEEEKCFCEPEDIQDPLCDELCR

Molecule: RET ECD (from UniProt P07949)
Kd [1]: 3.2 µM

stoichiometry N [2]: 2 | Kd [3]: 8.5 µM
Molecule: RET^C634R extracellular domain dimer (human RET residues 1-635 with C634R, C86R and C216S) (from UniProt P07949 29-635) (domain or fragment)

binding result [4]: binds
B1: GDF15/GFRAL complex with the Fc removed by thrombin (formed beforehand) (complex, human)
chain 1: ARARNGDHCPLGPGRCCRLHTVRASLEDLGWADWVLSPREVQVTMCIGACPSQFRAANMHAQIKTSLHRLKPDTVPAPCCVPASYNPMVLIQKTDTGVSLQTYDDLLAKDCHCI
chain 2: SQTNNCTYLREQCLRDANGCKHAWRVMEDACNDSDPGDPCKMRNSSYCNLSIQYLVESNFQFKECLCTDDFYCTVNKLLGKKCINKSDNVKEDKFKWNLTTRSHHGFKGMWSCLEVAEACVGDVVCNAQLASYLKACSANGNPCDLKQCQAAIRFFYQNIPFNIAQMLAFCDCAQSDIPCQQSKEALHSKTCAVNMVPPPTCLSVIRSCQNDELCRRHYRTFQSKCWQRVTRKCHEDENCISTLSKQDLTCSGSDDCKAAYIDILGTVLQVQCTCRTITQSEESLCKIFQHMLHRKSCFNYPTLSNVKGMALYTRKHANKITLTGFHSPFNGE
notes: human GDF15, residues 195-308; human GFRAL, residues 19-351; as m4; not shown: modified Fc, N-terminal, cleaved; copies: 2 + 2
